Columns and labels:
[1] = target: HA head domain of H7 A/Shanghai/02/2013 (Influenza A virus A/Shanghai/02/2013 …, UniProt R4NN21, strain); test: BLI
[2] = target: H1 HA of A/California/04/2009, His-tagged soluble HA (competition assay) (Influenza A virus A/California/04/2009 …, UniProt C3W5S1, strain); test: BLI
[3] = target: HA head domain of H3 A/Victoria/361/2011 (Influenza A virus A/Victoria/361/2011 …, UniProt A0A097PF39, strain); test: BLI
[4] = target: T1, HA head domain of H1 A/Solomon Islands/3/2006 (Influenza A virus A/Solomon …, strain); test: BLI
T1 chain: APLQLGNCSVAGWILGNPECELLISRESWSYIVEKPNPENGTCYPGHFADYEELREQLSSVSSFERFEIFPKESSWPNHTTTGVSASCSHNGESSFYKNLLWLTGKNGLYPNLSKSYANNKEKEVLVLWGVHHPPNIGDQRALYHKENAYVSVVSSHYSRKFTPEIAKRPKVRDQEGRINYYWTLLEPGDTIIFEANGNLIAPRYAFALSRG

[5] = target: H7 HA of A/New York/107/2003 (Influenza A virus A/New York/107/2003 …, UniProt B2LVD7, strain); test: ELISA
[6] = target: monomeric HA head domain of H5 A/Vietnam/1203/2004 (Influenza A virus A/Vietnam/1203/2004 …, UniProt Q5EP31, strain); test: HDX-MS
H1 HA of A/Texas/36/1991 = H1 HA of A/Texas/36/1991 (Influenza A virus A/Texas/36/1991 (H1N1), UniProt Q6WG02, strain); test: ELISA
[7] = target: H5 HA of A/Indonesia/5/2005 (Influenza A virus A/Indonesia/5/2005 …, UniProt A5A5L7, strain); test: ELISA
[8] = target: H1 HA0 trimer of A/California/04/2009 (uncleaved, baculovirus-expressed ectodomain) (influenza A virus A/California/04/2009 …); test: BLI
[9] = target: H7 HA0 trimer of A/Shanghai/02/2013 (uncleaved, baculovirus-expressed ectodomain) (Influenza A virus A/Shanghai/02/2013 …, UniProt R4NN21, strain); test: BLI
[10] = target: HA head domain of H3 A/Hong Kong/1/1968 (Influenza A virus A/Hong Kong/1/1968 …, strain); test: crystal structure

Measured: binding result

B1: FluA-20 IgG (hybridoma-generated) (antibody, V domains shown)
VH: QVQLEESGPGLVKPSETLSLTCSVSGVSVTSDIYYWTWIRQPPGKGLEWIGYIFYNGDTNYNPSLKSRVTMSIDTSKNEFSLRLTSVTAADTAVYFCARGTEDLGYCSSGSCPNHWGQGTLVTVSS
VL: DIVMTQSPSSLSASIGDRVTITCRPSQNIRSFLNWFQHKPGKAPKLLIYAASNLQSGVPSRFSGSGSGTEFTLTIRSLQPEDFATYYCQQSYNTPPTFGQGTKVEIK
binds: [1] | [2] | [3] | [4] | [5] | [6]

B2: rFluA-20 IgG (recombinant FluA-20 IgG) (antibody, V domains shown)
VH: QVQLEESGPGLVKPSETLSLTCSVSGVSVTSDIYYWTWIRQPPGKGLEWIGYIFYNGDTNYNPSLKSRVTMSIDTSKNEFSLRLTSVTAADTAVYFCARGTEDLGYCSSGSCPNHWGQGTLVTVSS
VL: DIVMTQSPSSLSASIGDRVTITCRPSQNIRSFLNWFQHKPGKAPKLLIYAASNLQSGVPSRFSGSGSGTEFTLTIRSLQPEDFATYYCQQSYNTPPTFGQGTKVEIK
binds: H1 HA of A/Texas/36/1991 | [5] | [7]

B3: rFluA-20 Fab (Fab, V domains shown)
VH: QVQLEESGPGLVKPSETLSLTCSVSGVSVTSDIYYWTWIRQPPGKGLEWIGYIFYNGDTNYNPSLKSRVTMSIDTSKNEFSLRLTSVTAADTAVYFCARGTEDLGYCSSGSCPNHWGQGTLVTVSS
VL: DIVMTQSPSSLSASIGDRVTITCRPSQNIRSFLNWFQHKPGKAPKLLIYAASNLQSGVPSRFSGSGSGTEFTLTIRSLQPEDFATYYCQQSYNTPPTFGQGTKVEIK
binds: [8] | [9] | [10]
